Measured values reported in patent US20100120124A1 (CONSEJO SUPERIOR DE INVESTIGACIONES CIENTIFICAS, published 2010).

T1: α-amylase (pig pancreatic enzyme α-amylase, Sigma) (pig, UniProt P00690 16-511)
T1 sequence: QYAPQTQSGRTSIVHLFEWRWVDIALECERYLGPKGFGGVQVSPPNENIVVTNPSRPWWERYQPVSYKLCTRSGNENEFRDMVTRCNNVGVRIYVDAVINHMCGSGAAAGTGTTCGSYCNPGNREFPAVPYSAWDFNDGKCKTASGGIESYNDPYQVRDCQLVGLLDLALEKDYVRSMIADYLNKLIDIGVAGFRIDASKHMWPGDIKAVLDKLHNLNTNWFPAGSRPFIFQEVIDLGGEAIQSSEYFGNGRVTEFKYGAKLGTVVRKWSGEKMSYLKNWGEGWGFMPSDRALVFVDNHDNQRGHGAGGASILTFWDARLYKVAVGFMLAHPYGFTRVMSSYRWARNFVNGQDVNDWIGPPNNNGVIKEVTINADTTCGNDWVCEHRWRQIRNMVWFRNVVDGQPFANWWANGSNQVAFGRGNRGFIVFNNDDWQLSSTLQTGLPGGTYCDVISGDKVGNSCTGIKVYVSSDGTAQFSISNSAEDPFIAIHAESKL

B1: fusion antibody EspF-Vgfp (EspF20 signal fused to camel VHH anti-GFP with C-terminal 6xhis and E-tag) (VHH)
VHH: QVQLVESGGALVQPGGSLRLSCAASGFPVNRYSMRWYRQAPGKEREWVAGMSSAGDRSSYEDSVKGRFTISRDDARNTVYLQMNSLKPEDTAVYYCNVNVGFEYWGQGTQVTVSS
notes: also called product of plasmid pEspFVgfp
B2: fusion antibody EspF-Vamy (EspF20 signal fused to camel VHH anti-amylase with C-terminal 6xhis and E-tag) (VHH)
VHH: QVQLVESWGGSVQAGGSLRLSCTAPGFTSNSCRMDWYRQAAGKQREWVSSISTDGRTSYADSVKGRFTISKDKAKDTVYLQMNSLKPEDTAIYYCAVRTNGYRPQSHEFRYWGPGTQVTVSS
notes: also called EspF20-Vamy; product of plasmid pEspFVamy

Tests used:
[1] = target: T2, bovine seroalbumin (BSA, Roche) (bovine, UniProt P02769 25-607); assay: ELISA, supernatant of EPEC culture on coated antigen, anti-E-tag-POD
T2 construct: also called bovine albumin

[2] = target: T1, α-amylase (pig pancreatic enzyme …); assay: as above

T2 sequence (P02769 25-607 limits assumed): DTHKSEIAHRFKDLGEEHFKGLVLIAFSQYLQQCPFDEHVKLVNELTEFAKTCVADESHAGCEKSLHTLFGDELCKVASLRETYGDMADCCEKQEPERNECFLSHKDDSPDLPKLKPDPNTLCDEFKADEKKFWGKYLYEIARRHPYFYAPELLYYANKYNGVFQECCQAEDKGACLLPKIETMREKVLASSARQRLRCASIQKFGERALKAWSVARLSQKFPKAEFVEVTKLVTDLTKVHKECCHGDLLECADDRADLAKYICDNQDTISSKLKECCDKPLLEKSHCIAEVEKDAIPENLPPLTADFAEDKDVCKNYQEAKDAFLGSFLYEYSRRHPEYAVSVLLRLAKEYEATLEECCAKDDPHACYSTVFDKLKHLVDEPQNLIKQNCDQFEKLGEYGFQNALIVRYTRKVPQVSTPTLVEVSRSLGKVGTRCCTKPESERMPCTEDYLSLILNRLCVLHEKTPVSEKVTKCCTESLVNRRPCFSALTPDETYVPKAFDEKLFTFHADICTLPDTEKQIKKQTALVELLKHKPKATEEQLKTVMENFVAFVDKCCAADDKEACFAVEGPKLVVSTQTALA

Binder | binding result [1] | binding result [2]
B1 | no binding | no binding
B2 | no binding | binds
